Measurements reported in patent US20030158387.

Experiments:
[1] = system: processed human chemokine PHC-1 (HCC-1[9-74])
[2] = system: T1, full size human chemokine HCC-1 (residues 1-74)
T1 sequence: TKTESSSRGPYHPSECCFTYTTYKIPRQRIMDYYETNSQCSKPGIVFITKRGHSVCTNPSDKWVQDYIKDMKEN

Substance	activity of 50 nM PHC-1 after incubation with 10 or 100 IU purified urokinase [1]	proteolytic degradation (tryptic digestion with increased incubation time) [1]	proteolytic cleavage (tryptic digestion, enzyme/substrate-ratio (w/w) 1/100, one hour) [2]
urokinase (purified CHOAY urokinase, Sanofi Wintrop; uPA)	No change of activity was observed after an incubation of 90 min at 37 °C		
trypsin		trypsin generated PHC-1 then degrades PHC-1 into inactive fragments when the incubation time is increased	the 74 residue peptide was in part cleaved into smaller fragments. One cleavage product, the newly identified biologically active peptide PHC-1
